Target: vp22-RelA302-316 peptide (herpes virus | , UniProt Q04206 302-316)
Assay: SPR

B1: His-SETD6 (enzyme)
chain: MATQAKRPRVAGPVDGGDLDPVACFLSWCRRVGLELSPKVSERAGGRRTRGGARAALTSPPAQVAVSRQGTVAGYGMVARESVQAGELLFVVPRAALLSQHTCSIGGLLERERVALQSQSGWVPLLLALLHELQAPASRWRPYFALWPELGRLEHPMFWPEEERRCLLQGTGVPEAVEKDLANIRSEYQSIVLPFMEAHPDLFSLRVRSLELYHQLVALVMAYSFQEPLEEEEDEKEPNSPVMVPAADILNHLANHNANLEYSANCLRMVATQPIPKGHEIFNTYGQMANWQLIHMYGFVEPYPDNTDDTADIQMVTVREAALQGTKTEAERHLVYERWDFLCKLEMVGEEGAFVIGREEVLTEEELTTTLKVLCMPAEEFRELKDQDGGGDDKREEGSLTITNIPKLKASWRQLLQNSVLLTLQTYATDLKTDQGLLSNKEVYAKLSWREQQALQVRYGQKMILHQLLELTS
  Kd: 1100 nM

From paper PMC5797019 (2017)
